# Data from publication PMC5593919, “Functional characterization of Vip3Ab1 and Vip3Bc1: Two novel insecticidal proteins with differential activity against lepidopteran pests” (Scientific Reports, 2017).
# Tests used:
# [1] = biological target: C-terminal ~65 kDa domain of Vip3Ab1, expressed from Leu222 (Bacillus thuringiensis); experiment: SEC; analytical SEC, TSKgel SuperSW3000, 50 mM sodium phosphate pH 7.0 with 250 mM NaCl, 75 µl/min, 3 µl at 150 µg/ml, fluorescence detection; size from retention time against molecular weight standards; proteins not digested
# [2] = biological target: Vip3Ab1 (Bacillus thuringiensis); experiment: as above
# [3] = biological target: Vip3Ab1 after overnight processing with H. zea midgut enzymes (~20 kDa and ~65 kDa products together) (Bacillus thuringiensis); experiment: SEC; purified Vip3 protein digested overnight with H. zea gut fluid (50 mM MOPS pH 10, 30 °C), stopped with protease inhibitors, then analytical SEC on TSKgel SuperSW3000 in 50 mM sodium phosphate pH 7.0 with 250 mM NaCl; size from retention time
# [4] = biological target: Vip3_AB chimera (N-terminal domain of Vip3Ab1 and C-terminal domain of Vip3Bc1) (Bacillus thuringiensis); experiment: SEC; analytical SEC, TSKgel SuperSW3000, 50 mM sodium phosphate pH 7.0 with 250 mM NaCl, 75 µl/min, 3 µl at 150 µg/ml, fluorescence detection; size from retention time against molecular weight standards; proteins not digested
# [5] = biological target: Vip3_BA chimera (N-terminal domain of Vip3Bc1 and C-terminal domain of Vip3Ab1) (Bacillus thuringiensis); experiment: as above
# [6] = biological target: the molecule itself; experiment: as above
# [7] = biological target: T1, ~65 kDa C-terminal product of Vip3Bc1 after gut enzyme processing (Bacillus thuringiensis, UniProt A0A290WPI2 214-803); experiment: SEC; purified Vip3 protein digested overnight with H. zea gut fluid (50 mM MOPS pH 10, 30 °C), stopped with protease inhibitors, then analytical SEC on TSKgel SuperSW3000 in 50 mM sodium phosphate pH 7.0 with 250 mM NaCl; size from retention time; conditions: both partners purified
# T1 construct: Vip3Bc1, GenBank MF543028, product from the cleavage 210NVTK/EVIE (processed at 214Glu); source: Vip3Bc1 from Pseudomonas fluorescens, purified, then digested overnight with H. zea gut enzymes
# T1 sequence: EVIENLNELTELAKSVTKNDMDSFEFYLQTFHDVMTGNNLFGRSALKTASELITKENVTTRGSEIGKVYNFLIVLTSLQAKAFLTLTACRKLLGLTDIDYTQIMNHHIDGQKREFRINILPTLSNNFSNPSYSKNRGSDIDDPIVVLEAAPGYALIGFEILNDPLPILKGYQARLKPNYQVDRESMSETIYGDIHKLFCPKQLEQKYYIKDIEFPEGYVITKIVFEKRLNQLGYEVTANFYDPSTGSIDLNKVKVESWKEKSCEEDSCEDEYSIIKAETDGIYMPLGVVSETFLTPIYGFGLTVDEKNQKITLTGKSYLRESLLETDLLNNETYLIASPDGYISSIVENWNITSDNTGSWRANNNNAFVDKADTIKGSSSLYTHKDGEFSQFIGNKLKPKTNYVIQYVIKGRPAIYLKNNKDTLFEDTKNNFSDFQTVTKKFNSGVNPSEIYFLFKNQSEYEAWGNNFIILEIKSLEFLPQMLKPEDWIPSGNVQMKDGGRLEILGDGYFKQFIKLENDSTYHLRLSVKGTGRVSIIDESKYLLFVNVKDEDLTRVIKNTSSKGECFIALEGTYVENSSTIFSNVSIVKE
# [8] = biological target: the molecule itself; experiment: as above
molecule,measurement,setting,value
"C-terminal ~65 kDa domain of Vip3Ab1, expressed from Leu222 (domain or fragment)",stoichiometry N,[1],2
Vip3Ab1 (natural protein),stoichiometry N,[2],4
Vip3Ab1 after overnight processing with H. zea midgut enzymes (~20 kDa and ~65 kDa products together) (complex),stoichiometry N,[3],4
Vip3_AB chimera (N-terminal domain of Vip3Ab1 and C-terminal domain of Vip3Bc1) (from UniProt A0A290WPI2 224-803),stoichiometry N,[4],4
Vip3_BA chimera (N-terminal domain of Vip3Bc1 and C-terminal domain of Vip3Ab1) (from UniProt A0A290WPI2 2-223),percent tetrameric,[5],50%
same,stoichiometry N,[5],4
"C-terminal ~65 kDa domain of Vip3Bc1, expressed from Leu222 (domain or fragment, Vip3Bc1, GenBank MF543028, beginning at Leu222; also called C-terminus of Vip3Bc1; C-terminal region of Vip3Bc1; source: Pseudomonas fluorescens, purified) LTELAKSVTKNDMDSFEFYLQTFHDVMTGNNLFGRSALKTASELITKENVTTRGSEIGKVYNFLIVLTSLQAKAFLTLTACRKLLGLTDIDYTQIMNHHIDGQKREFRINILPTLSNNFSNPSYSKNRGSDIDDPIVVLEAAPGYALIGFEILNDPLPILKGYQARLKPNYQVDRESMSETIYGDIHKLFCPKQLEQKYYIKDIEFPEGYVITKIVFEKRLNQLGYEVTANFYDPSTGSIDLNKVKVESWKEKSCEEDSCEDEYSIIKAETDGIYMPLGVVSETFLTPIYGFGLTVDEKNQKITLTGKSYLRESLLETDLLNNETYLIASPDGYISSIVENWNITSDNTGSWRANNNNAFVDKADTIKGSSSLYTHKDGEFSQFIGNKLKPKTNYVIQYVIKGRPAIYLKNNKDTLFEDTKNNFSDFQTVTKKFNSGVNPSEIYFLFKNQSEYEAWGNNFIILEIKSLEFLPQMLKPEDWIPSGNVQMKDGGRLEILGDGYFKQFIKLENDSTYHLRLSVKGTGRVSIIDESKYLLFVNVKDEDLTRVIKNTSSKGECFIALEGTYVENSSTIFSNVSIVKE",stoichiometry N,[6],2
"Vip3Bc1 (natural protein, Vip3Bc1, vegetative insecticidal protein of Bacillus thuringiensis, GenBank MF543028; expressed with only the first methionine removed (N-terminus VQKWM at 2); Gene was synthesized, codon biased for maize; source: Pseudomonas fluorescens, purified (ammonium sulfate precipitation, anion exchange)) VQKWMQRMIIVDNNKLNVRALPSFIDYFNGIYGFATGIKDIMGMIFKTDTGGSNLTLDEILKNQNLLNDISGKLDGINGDLGDLIAQGNLNSELAKELLKISNEQNQMLNHVNAQLNAINSTLNIYLPKITSMLNEVMKQNHVLSLQIEFLSKQLQEISDKLDIINLNVLINSTLTEITPAYQRIKYVNEKFDELTSTVEKNPKSYQDNVTKEVIENLNELTELAKSVTKNDMDSFEFYLQTFHDVMTGNNLFGRSALKTASELITKENVTTRGSEIGKVYNFLIVLTSLQAKAFLTLTACRKLLGLTDIDYTQIMNHHIDGQKREFRINILPTLSNNFSNPSYSKNRGSDIDDPIVVLEAAPGYALIGFEILNDPLPILKGYQARLKPNYQVDRESMSETIYGDIHKLFCPKQLEQKYYIKDIEFPEGYVITKIVFEKRLNQLGYEVTANFYDPSTGSIDLNKVKVESWKEKSCEEDSCEDEYSIIKAETDGIYMPLGVVSETFLTPIYGFGLTVDEKNQKITLTGKSYLRESLLETDLLNNETYLIASPDGYISSIVENWNITSDNTGSWRANNNNAFVDKADTIKGSSSLYTHKDGEFSQFIGNKLKPKTNYVIQYVIKGRPAIYLKNNKDTLFEDTKNNFSDFQTVTKKFNSGVNPSEIYFLFKNQSEYEAWGNNFIILEIKSLEFLPQMLKPEDWIPSGNVQMKDGGRLEILGDGYFKQFIKLENDSTYHLRLSVKGTGRVSIIDESKYLLFVNVKDEDLTRVIKNTSSKGECFIALEGTYVENSSTIFSNVSIVKE",stoichiometry N,[6],4
"~20 kDa N-terminal product of Vip3Bc1 after gut enzyme processing (domain or fragment, Vip3Bc1, GenBank MF543028, product between the cleavage at 21Ala and the cleavage 210NVTK/EVIE (processed at 214Glu); source: Vip3Bc1 from Pseudomonas fluorescens, purified, then digested overnight with H. zea gut enzymes) ALPSFIDYFNGIYGFATGIKDIMGMIFKTDTGGSNLTLDEILKNQNLLNDISGKLDGINGDLGDLIAQGNLNSELAKELLKISNEQNQMLNHVNAQLNAINSTLNIYLPKITSMLNEVMKQNHVLSLQIEFLSKQLQEISDKLDIINLNVLINSTLTEITPAYQRIKYVNEKFDELTSTVEKNPKSYQDNVTK",binding result,[7],binds
"Vip3Bc1 after overnight processing with H. zea midgut enzymes (~20 kDa and ~65 kDa products together) (complex, Vip3Bc1 ~20 kDa product, as m9; Vip3Bc1 ~65 kDa product, as m10; Vip3Bc1 was processed much more slowly than Vip3Ab1; also called processed Vip3Bc1; source: Vip3Bc1 from Pseudomonas fluorescens, purified, then digested overnight with H. zea gut enzymes; copies: 4 + 4) chain 1: ALPSFIDYFNGIYGFATGIKDIMGMIFKTDTGGSNLTLDEILKNQNLLNDISGKLDGINGDLGDLIAQGNLNSELAKELLKISNEQNQMLNHVNAQLNAINSTLNIYLPKITSMLNEVMKQNHVLSLQIEFLSKQLQEISDKLDIINLNVLINSTLTEITPAYQRIKYVNEKFDELTSTVEKNPKSYQDNVTK chain 2: EVIENLNELTELAKSVTKNDMDSFEFYLQTFHDVMTGNNLFGRSALKTASELITKENVTTRGSEIGKVYNFLIVLTSLQAKAFLTLTACRKLLGLTDIDYTQIMNHHIDGQKREFRINILPTLSNNFSNPSYSKNRGSDIDDPIVVLEAAPGYALIGFEILNDPLPILKGYQARLKPNYQVDRESMSETIYGDIHKLFCPKQLEQKYYIKDIEFPEGYVITKIVFEKRLNQLGYEVTANFYDPSTGSIDLNKVKVESWKEKSCEEDSCEDEYSIIKAETDGIYMPLGVVSETFLTPIYGFGLTVDEKNQKITLTGKSYLRESLLETDLLNNETYLIASPDGYISSIVENWNITSDNTGSWRANNNNAFVDKADTIKGSSSLYTHKDGEFSQFIGNKLKPKTNYVIQYVIKGRPAIYLKNNKDTLFEDTKNNFSDFQTVTKKFNSGVNPSEIYFLFKNQSEYEAWGNNFIILEIKSLEFLPQMLKPEDWIPSGNVQMKDGGRLEILGDGYFKQFIKLENDSTYHLRLSVKGTGRVSIIDESKYLLFVNVKDEDLTRVIKNTSSKGECFIALEGTYVENSSTIFSNVSIVKE",stoichiometry N,[8],4
